{"source": "patent US9873733B2", "about": "“Anti-staphylococcal antibodies” (priority 2012, dated 2018)", "molecules": {"B1": {"name": "M-L1: human IgG1 against linear peptide, loop 1 of MprF; VH1A kappa 3; VL Seq. ID: 14, VH Seq. ID: 15 (antibody, V domains shown)", "VH": "QVQLVQSGAEVKKPGSSVKVSCKASGGTFNSYAIHWVRQAPGQGLEWMGGIIPIFGIANYAQKFQGRVTITADESTSTAYMELSSLRSEDTAVYYCARDQYTYDYYRAFDYWGQGTLVTVSS", "VL": "DIVLTQSPATLSLSPGERATLSCRASQSVRDNLAWYQQKPGQAPRLLIYGASNRATGIPARFSGSGSGTDFTLTISSLEPEDFAVYYCQQYDHSPRTFGQGTKVEIKRT", "modifications": "ML1 VH; ML1 VL", "notes": "human IgG1 against linear peptide, loop 1 of MprF; VH1A kappa 3; ID: 15"}, "B2": {"name": "M-C4.2: human IgG1 against cyclic peptide, loop 4 of MprF; VH3-23 kappa 1; VL Seq. ID: 54, VH Seq. ID: 55 (antibody, V domains shown)", "VH": "EVQLLESGGGLVQPGGSLRLSCAASGFTFSSYAMHWVRQAPGKGLEWVSVISSVGSSTYYADSVKGRFTISRDNSKNTLYLQMNSLRAEDTAVYYCARGGLDVWGQGTLVTVSS", "VL": "DIQMTQSPSSLSASVGDRVTITCRASQDISKYLNWYQQKPGKAPKLLIYAASRLQSGVPSRFSGSGSGTDFTLTISSLQPEDFATYYCQQGDSTPFTFGQGTKVEIKRT", "modifications": "MC42 VH; MC42 VL", "notes": "human IgG1 against cyclic peptide, loop 4 of MprF; VH3-23 kappa 1; ID: 55"}, "B3": {"name": "M-C5.1: human IgG1 against cyclic peptide, loop 5 of MprF; VH1A kappa 1; VL Seq. ID: 74, VH Seq. ID: 75 (antibody, V domains shown)", "VH": "QVQLVQSGAEVKKPGSSVKVSCKASGGTFSSYAISWVRQAPGQGLEWMGGIVPIFGTANYAQKFQGRVTITADESTSTAYMELSSLRSEDTAVYYCARVRYGYWDVWGQGTLVTVSS", "VL": "B2 VL with S30A, K31N, Y32W, R53S, G91Y, D92I, T94L, F96I", "modifications": "MC51 VH; MC51 VL", "notes": "human IgG1 against cyclic peptide, loop 5 of MprF; VH1A kappa 1; ID: 75"}, "B4": {"name": "M-C6.2: human IgG1 against cyclic peptide, loop 6 of MprF; VH1A kappa 1; VL Seq. ID: 104, VH Seq. ID: 105 (antibody, V domains shown)", "VH": "QVQLVQSGAEVKKPGSSVKVSCKASGGTFSSYAISWVRQAPGQGLEWMGGIIPILGIANYAQKFQGRVTITADESTSTAYMELSSLRSEDTAVYYCARSLPYRSDLYGFSRWSYHRVGMDVWGQGTLVTVSS", "VL": "B2 VL with K31N, Y32T, R53T, G91V, D92G, T94F, F96Y", "modifications": "MC62 VH; MC62 VL", "notes": "human IgG1 against cyclic peptide, loop 6 of MprF; VH1A kappa 1; ID: 105"}}, "key": {"[1]": {"tested_on": "Staphylococcus aureus clinical isolate 703", "settings": "Jones et al., AAC 2008; cited from earlier work"}, "[2]": {"tested_on": "Staphylococcus aureus clinical isolate 703", "assay": "Killing of clinical isolate 703 by daptomycin", "format": "cell-based", "settings": "11 μg/ml daptomycin, in the presence of the anti-lysozyme antibody", "description": "(§1) Overnight cultures of S. aureus SA113 Δspa were diluted in fresh MHB medium and adjusted to OD600 0.25 (˜1.5×10^7 cells). Antibodies were adjusted to a concentration of 1 mg/ml and 10 μl were applied per well of a 96 well plate and diluted in 90 μl of the adjusted cell suspension (final antibody concentration: 100 μg/ml). Cells were grown in the presence of anti-lysozyme antibody (control) or with the anti-MprF antibodies. Duplicates were employed for each assay. After 3 hours of incubation under shaking conditions at 37° C., optical density was determined, adjusted to OD600 0.025 in 500 μl ice cold PBS buffer. 80 μl of the adjusted cell suspension were diluted with 20 μl of antimicrobial substances to final concentrations of 22.5 μg/ml nisin. After incubation for 2 hours under shaking conditions at 37° C., the cell suspensions were diluted 1:2000 and 100 μl of each duplicate was plated in triplicates on TSB medium containing agar plates to obtain a representative value of bacterial survival. Cells treated without antimicrobial substance were set at 100% and survival values were calculated with cells treated with antimicrobial substances. At least three independent assays were employed.\nIn this experiment killing of Staphylococcus aureus clinical isolate 703 (described in Jones et al., AAC 2008) by daptomycin in the presence of an MprF specific antibody was analyzed. […]"}, "S. aureus SA113": {"tested_on": "S. aureus SA113", "assay": "Growth inhibition assay with nisin", "format": "cell-based, Staphylococcus aureus", "settings": "nisin 6 μg/ml", "description": "(§2) Therefore S. aureus (S. aureus SA113) cells grown to mid-log phase were used to inoculate fresh TSB medium. These cultures were mixed with anti-MprF (1 μM) antibody or control IgG respectively or with anti-MprF (1 μM) antibody or control IgG in combination with nisin (6 μg/ml). The growth of the S. aureus in presence of anti-MprF antibody was monitored in culture plates shaking at 37° C. by measuring OD600. […] (FIG. 7)"}, "[3]": {"tested_on": "Staphylococcus aureus clinical isolate USA300 (MRSA)", "assay": "Growth inhibition of clinical isolate USA300 by nisin", "format": "cell-based", "settings": "nisin 4.5 μg/ml", "description": "as §2\nIn this experiment growth inhibition of Staphylococcus aureus clinical isolate USA300 by nisin was tested in the presence of an MprF specific antibody.\nThe experiment was performed as described in Example 5. Instead of S. aureus SA113 the clinical isolate S. aureus USA300 was used. The concentration of nisin was 4.5 μg/ml instead of 6 μg/ml nisin."}, "[4]": {"tested_on": "S. aureus mutants lacking MprF expression (delta spa delta mprF)", "assay": "Whole cell ELISA on S. aureus mutant lacking MprF", "format": "binding, Staphylococcus aureus", "settings": "compared with delta spa", "description": "(§3) The specificity of the purified antibodies was tested for binding to whole cell Staphylococcus aureus in an ELISA assay. Escherichia coli bacteria were used as a negative control.\n(§4) For ELISA on S. aureus the Protein A deletion mutant (delta spa) or the mutant with an additional deletion in MprF (delta spa delta mprf) were grown to mid log phase, than washed in PBS and resuspended in saline to a final OD600 of 0.6. This bacterial culture was coated on Maxisorp plates (Nunc). Plates were blocked with 2% BSA/PBS and washed with TSB containing 0.5% TWEEN20."}, "[5]": {"target": "linear peptide representing loop 1 of MprF (Staphylococcus aureus, UniProt Q2G2M2)", "sequence (Q2G2M2 31-50, looked up, natural form)": "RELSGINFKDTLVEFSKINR", "settings": "IgG at various concentrations; peptide 5 μg/ml", "description": "(§5) The IgGs were tested for binding to the antigen, which was used in their selection. Also binding to other MprF-peptides was tested to check for selectivity.\nMprF-specific IgGs were detected using goat-anti-human IgG (Sigma).\n(§6) In both cases washing was performed using PBST ([…] with 0.05% TWEEN20. Detection was performed using alkaline phosphatase coupled Goat anti-human IgG (Sigma Cat. # A-8542 and Attophos™ substrate Roche, Cat. #11681982001). Fluorescence was measured at an excitation of 440±25 nm and an emission of 550±35 nm. Full signal intensity is typically reached after 5-15 min at room temperature."}, "[6]": {"tested_on": "MprF on S. aureus (Protein A deletion mutant, delta spa)", "assay": "Whole cell ELISA on S. aureus", "format": "binding, Staphylococcus aureus", "settings": "E. coli as negative control", "description": "as §3, §4"}, "S. aureus SA113 Δspa": {"tested_on": "S. aureus SA113 Δspa", "assay": "Killing of S. aureus by nisin with MprF antibodies", "format": "cell-based, Staphylococcus aureus", "settings": "antibody 100 μg/ml, 22.5 μg/ml nisin, 2 hours; anti-lysozyme antibody as control", "description": "In this experiment killing of Staphylococcus aureus was tested. Nisin was used as an exemplary cationic antimicrobial compound. Nisin was tested in combination with selected antibodies of the present invention. An anti-lysozyme antibody was used as a negative control.\nas §1"}, "[7]": {"target": "cyclic peptide representing loop 4 of MprF (Staphylococcus aureus, UniProt Q2G2M2)", "settings": "IgG in PBS; biotinylated cyclic peptide 5 μg/ml", "description": "as §5\n(§7) For ELISAs with cyclic antigen, the biotinylated cyclic peptides (final conc. 5 μg/ml) were incubated with IgGs in PBS. Then the mix was transferred to a pre-blocked Neutravidin plate (Thermo Scientific), incubated and then the plate was washed with PBS containing 0.5% of TWEEN20. MprF-specific IgGs were detected using goat-anti-human IgG (Sigma).\nas §6"}, "[8]": {"target": "cyclic peptide representing loop 5 of MprF (Staphylococcus aureus, UniProt Q2G2M2)", "settings": "IgG in PBS; biotinylated cyclic peptide 5 μg/ml", "description": "as §5, §7, §6"}, "[9]": {"target": "cyclic peptide representing loop 6 of MprF (Staphylococcus aureus, UniProt Q2G2M2)", "settings": "IgG in PBS; biotinylated cyclic peptide 5 μg/ml", "description": "as §5, §7, §6"}}, "note": "Residue numbers refer to the chain shown, from its start.", "data": [{"molecule": "CCCCCCCCCC(=O)N[C@@H](Cc1c[nH]c2ccccc12)C(=O)N[C@H](CC(N)=O)C(=O)N[C@@H](CC(=O)O)C(=O)N[C@@H]1C(=O)NCC(=O)N[C@@H](CCCN)C(=O)N[C@@H](CC(=O)O)C(=O)N[C@H](C)C(=O)N[C@@H](CC(=O)O)C(=O)NCC(=O)N[C@H](CO)C(=O)N[C@@H]([C@H](C)CC(=O)O)C(=O)N[C@@H](CC(=O)c2ccccc2N)C(=O)O[C@@H]1C", "note": "[daptomycin, reference compound]", "values": [{"measurement": "Responsiveness of S. aureus clinical isolate 703 to daptomycin", "setting": "[1]", "result": "non-responsive to daptomycin"}, {"measurement": "Effect of daptomycin on S. aureus 703", "setting": "[2]", "result": "no effect on S. aureus 703"}]}, {"molecule": "nisin", "values": [{"measurement": "Growth of S. aureus (OD600), nisin alone", "setting": "S. aureus SA113", "result": "an effect of nisin alone in terms of reducing growths of bacteria was observable"}, {"measurement": "Growth of S. aureus USA300, nisin alone", "setting": "[3]", "result": "an effect of nisin alone in terms of reducing bacterial growths was observed"}]}, {"molecule": "B1", "values": [{"measurement": "Binding to S. aureus mutants lacking MprF expression (ELISA)", "setting": "[4]", "result": "significantly weaker binding"}, {"measurement": "Specific binding to linear loop 1 peptide (ELISA)", "setting": "[5]", "result": "specifically bind to linear loop 1 peptide in a dose-dependent manner"}, {"measurement": "Binding to whole cell S. aureus (ELISA)", "setting": "[6]", "result": "detect MprF on S. aureus"}]}, {"molecule": "B2", "values": [{"measurement": "Sensitivity of S. aureus towards nisin (killing, bacterial survival)", "setting": "S. aureus SA113 Δspa", "result": "most pronounced effects"}, {"measurement": "Specific binding to cyclic loop 4 peptide (ELISA)", "setting": "[7]", "result": "specifically bind to cyclic loop 4 peptide in a dose-dependent manner"}]}, {"molecule": "B3", "values": [{"measurement": "Binding to S. aureus mutants lacking MprF expression (ELISA)", "setting": "[4]", "result": "significantly weaker binding"}, {"measurement": "Sensitivity of S. aureus towards nisin (killing, bacterial survival)", "setting": "S. aureus SA113 Δspa", "result": "most pronounced effects"}, {"measurement": "Binding to whole cell S. aureus (ELISA)", "setting": "[6]", "result": "detect MprF on S. aureus"}, {"measurement": "Specific binding to cyclic loop 5 peptide (ELISA)", "setting": "[8]", "result": "specifically bind to cyclic loop 5 peptide in a dose-dependent manner"}]}, {"molecule": "B4", "values": [{"measurement": "Sensitivity of S. aureus towards nisin (killing, bacterial survival)", "setting": "S. aureus SA113 Δspa", "result": "most pronounced effects"}, {"measurement": "Specific binding to cyclic loop 6 peptide (ELISA)", "setting": "[9]", "result": "specifically bind to cyclic loop 6 peptide in a dose-dependent manner"}]}]}
